Values belong to the binder of their own block, whether it stands above or below them.
Tests used:
[1] = target: T1, human Fc gamma RIIb on MDCK cells (human, UniProt P31994 43-310); test: cell-based or functional assay
T1 sequence (looked up): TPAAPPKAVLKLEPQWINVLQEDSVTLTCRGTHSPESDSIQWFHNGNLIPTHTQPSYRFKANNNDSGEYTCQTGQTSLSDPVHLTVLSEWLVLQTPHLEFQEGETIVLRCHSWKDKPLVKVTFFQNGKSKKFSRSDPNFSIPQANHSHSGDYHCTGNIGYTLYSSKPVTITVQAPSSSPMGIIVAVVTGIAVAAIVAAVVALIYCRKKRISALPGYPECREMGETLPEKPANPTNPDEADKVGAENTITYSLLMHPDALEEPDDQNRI

[2] = target: T2, human Fc gamma RIIaH extracellular domain, His-tagged (human, UniProt P12318 34-217); test: SPR 25C
T2 construct: also called FcgRIIaH; human Fc gamma RIIa (type H)
T2 sequence: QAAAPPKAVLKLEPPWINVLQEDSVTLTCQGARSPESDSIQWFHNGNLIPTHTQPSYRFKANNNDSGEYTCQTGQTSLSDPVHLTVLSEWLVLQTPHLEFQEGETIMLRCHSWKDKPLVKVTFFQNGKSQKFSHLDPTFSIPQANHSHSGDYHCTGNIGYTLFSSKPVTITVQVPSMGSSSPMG

[3] = target: T3, human Fc gamma RIIb extracellular domain, His-tagged (human, UniProt P31994 43-217); test: SPR 25C
T3 construct: also called FcgRIIb
T3 sequence: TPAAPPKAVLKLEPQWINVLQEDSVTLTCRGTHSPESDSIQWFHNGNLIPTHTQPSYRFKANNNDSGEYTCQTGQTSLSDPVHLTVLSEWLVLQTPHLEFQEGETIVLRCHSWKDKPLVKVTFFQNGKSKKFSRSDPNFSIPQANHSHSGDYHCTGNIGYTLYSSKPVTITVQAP

[4] = target: T4, cyno Fc gamma RIIIaS extracellular domain, His-tagged (cynomolgus monkey, UniProt Q8SPW2 21-206 at identity 1.00)); test: SPR 25C
T4 construct: also called cynoFcgRIIIaS
T4 chain: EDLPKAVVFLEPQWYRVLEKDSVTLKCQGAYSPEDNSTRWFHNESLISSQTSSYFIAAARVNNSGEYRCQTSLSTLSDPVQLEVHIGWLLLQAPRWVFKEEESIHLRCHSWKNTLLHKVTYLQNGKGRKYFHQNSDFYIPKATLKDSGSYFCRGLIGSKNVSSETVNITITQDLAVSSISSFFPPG

human latent myostatin [5] = target: T5, human latent myostatin (human, UniProt O14793 25-266; O14793 267-375); test: SPR, dissociation phase at pH5.8
T5 construct: non-covalent complex of two propeptides and the mature homodimer; also called human myostatin latent form
T5 sequence 1: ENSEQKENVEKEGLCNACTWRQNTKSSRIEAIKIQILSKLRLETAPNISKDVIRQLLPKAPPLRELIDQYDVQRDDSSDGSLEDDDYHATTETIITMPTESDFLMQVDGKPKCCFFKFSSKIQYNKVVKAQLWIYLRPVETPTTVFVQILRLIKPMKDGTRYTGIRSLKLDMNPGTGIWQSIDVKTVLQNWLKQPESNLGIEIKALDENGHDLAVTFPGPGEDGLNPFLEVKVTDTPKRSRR
T5 sequence 2: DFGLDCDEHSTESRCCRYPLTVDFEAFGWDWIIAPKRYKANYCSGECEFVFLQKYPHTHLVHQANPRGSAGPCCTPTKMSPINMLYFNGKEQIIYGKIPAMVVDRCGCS

human latent myostatin [6] = target: T5, human latent myostatin; test: SPR, dissociation phase at pH5.8; remark: listed apart in the source
[7] = target: T6, cynomolgus monkey latent myostatin (cynomolgus monkey, UniProt Q95J86 25-266; Q95J86 267-375, limits assumed); test: SPR 37C
T6 construct: also called cyno latent myostatin
T6 sequence 1: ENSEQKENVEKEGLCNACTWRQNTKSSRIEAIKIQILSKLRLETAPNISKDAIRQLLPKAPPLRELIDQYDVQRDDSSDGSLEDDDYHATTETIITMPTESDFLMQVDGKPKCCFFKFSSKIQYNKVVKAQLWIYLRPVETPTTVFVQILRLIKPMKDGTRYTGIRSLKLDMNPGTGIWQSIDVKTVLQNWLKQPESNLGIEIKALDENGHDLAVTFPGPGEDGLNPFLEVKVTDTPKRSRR
T6 sequence 2: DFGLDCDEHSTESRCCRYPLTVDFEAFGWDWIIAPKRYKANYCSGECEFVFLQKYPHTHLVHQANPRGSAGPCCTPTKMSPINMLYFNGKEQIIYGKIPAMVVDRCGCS

human latent myostatin [8] = target: T5, human latent myostatin; test: SPR 37C pH7.4
mouse latent myostatin = target: T7, mouse latent myostatin (mouse, UniProt O08689 26-267; O08689 268-376); test: SPR 37C pH7.4
T7 sequence 1: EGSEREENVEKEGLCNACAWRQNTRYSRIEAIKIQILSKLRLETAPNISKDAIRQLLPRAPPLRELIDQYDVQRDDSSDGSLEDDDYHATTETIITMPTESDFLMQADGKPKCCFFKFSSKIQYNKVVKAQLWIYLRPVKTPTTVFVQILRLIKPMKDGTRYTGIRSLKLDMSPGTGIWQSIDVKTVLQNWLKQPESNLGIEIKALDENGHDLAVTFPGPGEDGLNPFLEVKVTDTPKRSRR
T7 sequence 2: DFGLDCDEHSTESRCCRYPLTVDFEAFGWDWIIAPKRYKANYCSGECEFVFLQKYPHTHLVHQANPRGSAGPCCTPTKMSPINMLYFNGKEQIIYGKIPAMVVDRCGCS

[9] = target: T6, cynomolgus monkey latent myostatin; test: SPR 37C pH5.8; pH 5.8
[10] = target: T6, cynomolgus monkey latent myostatin; test: SPR 37C pH7.4; pH 7.4

antigen antibody uptake into the cells [1]: 36 fold of SG1
B1: MS103240H795-TT33/M103202L1045-SK1 (antibody, human IgG1, kappa)
heavy: QVQLVESGGGLVQPGGSLRLSCAVSGIDLSHDDISWVRQAPGKGLEWVSIISYAGSTYYASWAKGRLTISKDTSKNQVVLTMTNMDPVDTATYYCARGVPAYSHGGDLWGQGTLVTVSSASTKGPSVFPLAPSSKSTSGGTAALGCLVKDYFPEPVTVSWNSGALTSGVHTFPAVLQSSGLYSLSSVVTVPSSSLGTQTYICNVNHKPSNTKVDKKVEPKSCDKTHTCPPCPAPEYLGGDSVFLFPPKPKDVLMISRTPEVTCVVIDVSHEDPEVKFNWYVDGVEVHNAKTKPREEQYNSTYRVVSVLPVLHRDWLNGKEYKCKVSNKALPKPIEKTISKAKGQPREPQVYTLPPSREEMTKNQVSLTCLVKGFYPSDIAVEWESNGQPENNYKTTPPVLDSDGSFFLYSKLTVKKSRWQQGNVFSCSVMHEALHNHYTQKSLSLSP
light: DIVMTQSPATLSLSPGERATLSCTTSQSVYHENWLSWFQQKPGQPPKLLIYWASTLAYGVPSRFSGSGSGTDFTLTISSLQPEDAATYYCAGGYGGGRYAFGQGTKVEIKRTVAAPSVFIFPPSDEQLKSGTASVVCLLNNFYPREAKVQWKVDNALQSGNSQESVTEQDSKDSTYSLSSTLTLSKADYEKHKVYACEVTHQGLSSPVTKSFNRGEC

binding result [2]: binds | binding result [3]: binds | binding result [4]: binds
B2: M103205H795-MY009/M103202L889-SK1 (antibody, human IgG1, kappa)
heavy: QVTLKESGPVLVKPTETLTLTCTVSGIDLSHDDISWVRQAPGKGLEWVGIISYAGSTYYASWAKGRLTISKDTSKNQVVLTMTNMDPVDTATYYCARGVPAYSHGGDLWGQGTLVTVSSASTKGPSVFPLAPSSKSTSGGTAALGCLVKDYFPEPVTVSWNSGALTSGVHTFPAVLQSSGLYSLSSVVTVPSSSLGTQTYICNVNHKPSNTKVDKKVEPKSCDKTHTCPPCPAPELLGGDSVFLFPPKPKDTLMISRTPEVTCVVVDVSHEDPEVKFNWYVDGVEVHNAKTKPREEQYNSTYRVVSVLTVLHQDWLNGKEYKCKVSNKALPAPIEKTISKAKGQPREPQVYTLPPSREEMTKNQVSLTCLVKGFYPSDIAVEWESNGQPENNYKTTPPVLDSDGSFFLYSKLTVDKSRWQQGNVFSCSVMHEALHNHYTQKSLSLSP
light: DIVMTQSPATLSLSPGERATLSCTSSQSVYHANWLSWFQQKPGQPPKLLIYWASTLAYGVPSRFSGSGSGTDFTLTISSLQPEDAATYYCAGGYGGGRYAFGQGTKVEIKRTVAAPSVFIFPPSDEQLKSGTASVVCLLNNFYPREAKVQWKVDNALQSGNSQESVTEQDSKDSTYSLSSTLTLSKADYEKHKVYACEVTHQGLSSPVTKSFNRGEC
notes: SG1 with P238D (EU); also called MS1032LO06-MY009; copies: 2 + 2

fold faster dissociation rate at pH5.8 than Ab001 (human latent myostatin [5]): 200 fold | koff (human latent myostatin [6]): 0.00609 s⁻¹
B3: Ab002 (M103205H001/M103202L000) (antibody, V domains shown)
VH: QVTLKESGPVLVKPTETLTLTCTVSGIDLSHYDISWVRQAPGKGLEWVGIISYAGSTYYASWAKGRLTISKDTSKNQVVLTMTNMDPVDTATYYCARGVPAYSTGGDLWGQGTLVTVSS
VL: DIVMTQSPATLSLSPGERATLSCQSSQSVYDNNWLSWFQQKPGQPPKLLIYWASTLASGVPSRFSGSGSGTDFTLTISSLQPEDAATYYCAGGYGGGLYAFGQGTKVEIKR
notes: variant of MS1032LO00-SG1

ratio of KD at pH 5.8/pH7.4 [7]: 229 | Kd (human latent myostatin [8]): 0.329 nM | Kd (mouse latent myostatin): 0.272 nM | Kd [9]: 80.9 nM | Kd [10]: 0.354 nM
B4: MS_M103205H1186-SG1/M103202L889-SK1 (antibody, human IgG1, kappa, V domains shown)
VH: QVTLKESGPVLVKPTETLTLTCTVSGIDLSHDDISWVRQAPGKGLEWVGIISYAGKKYYASWAKGRLTISKDTSKNQVVLTMTNMDPVDTATYYCARGVPAYSHGGDLWGQGTLVTVSS
VL: DIVMTQSPATLSLSPGERATLSCTSSQSVYHANWLSWFQQKPGQPPKLLIYWASTLAYGVPSRFSGSGSGTDFTLTISSLQPEDAATYYCAGGYGGGRYAFGQGTKVEIKR
notes: also called MS1032LO18-SG1

— patent publication EP4755449A2 (CHUGAI SEIYAKU KABUSHIKI KAISHA, dated 2026)
